We go through 30 sequences from the nanobody polyreactivity screen of Harvey et al. (2022).

The data set in a line: yeast display, Sf9 membrane polyspecificity reagent, FACS + sequencing; frameworks hold sequencing errors. In short, it runs like this: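 A nanobody's polyreactivity label depends on the gate it was sorted from. Yeast display cells were stained with 10% biotinylated, detergent-solubilized Sf9 membrane reagent for 1 hour at 4 °C, enriched on streptavidin microbeads and sorted by FACS. The low and high (top ~1%) gates were set on anti-HA fluorescence for expression and streptavidin fluorescence for reagent binding.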
Regarding “QVQLVESGGGLVQAGGSLRLSCAASGSISYFNAMGWYRQAPGKERELVAAITSGGSTYYADSVKGRFTISLDNAKNTVYLQMNSLKPEDTAVYYCNAPLEWGVYAAQNWDDGYWGQGTQVTVSS”, the “polyreactivity (PSR sort gate)” value is “low polyreactivity”.

For the sequence “QVQLVESGGGLVQAGGSLRLSCAASGSISYFNDMGWYRQAPGKERELVAAIRDSGGITYADSVKGRFTISRDNAKNTVYLQMNSLKPEDTAVYYCATYGNEIYDYWGLGTQVTVSS”, the “polyreactivity (PSR sort gate)” value is “low polyreactivity”.

For the sequence “QVQLVESGGGLVQAGGSLRLSCAASGSISYFYAMGWYRQAPGKERELVAAINSGDDTYADSVKGRFTISRDNAKNTVYLQMNSLKPEDTAVYYCAVKYGGYESHYYRRPHYDYWGQGTQVTVSS”, the “polyreactivity (PSR sort gate)” value was “low polyreactivity”.

As for “QVQLVESGGGLVQAGGSLRLSCAASGSISYIYTMGWDRQAPGKQRELVAAMSGSGSTYYADSVKGRFTISRDNAKNTVYLQMNSLKQEDTAVHYCNAGSGGLNFQEVPHGYDYWGQGTQVTVSS”, the “polyreactivity (PSR sort gate)” value is “low polyreactivity”.

“QVQLVESGGGLVQAGGSLRLSCAASGSISYKYAMGWYRQAPGKERELVAAISSSGGRTYYADSVKGRFTISRDNAKNTVYLQMNSLKPEDTAVYYCNADVLFYTYYTRGRFDFDYWGQGTQVTVSS”: the “polyreactivity (PSR sort gate)” value is given as “low polyreactivity”.

For “QVQLVESGGGLVQAGGSLRLSCAASGSISYVNAMGWYRQAPGKERELVAAITGGGSTNYADSVKGRFTISRDNAKNTVYLQMNSLKPEDTAVYYCAADADTDVVYILQEYDYWGQGTQVTVSS”, the “polyreactivity (PSR sort gate)” value is listed as “low polyreactivity”.

Turning to “QVQLVESGGGLVQAGGSLRLSCAASGSITGLNAMGWYRHAPGKERELVAAIYRSGGRTYNADSVKGRFTISRDNAKNTVYLQMISLKPEDTAVYYCAAVTTWRLDYWGQGTQVTVSS”, the “polyreactivity (PSR sort gate)” value was “high polyreactivity”.

Turning to “QVQLVESGGGLVQAGGSLRLSCAASGSIVHGYTMGWYRQEPGKERELVAAINSGDGSTYADSVKGRFPISRDNAKNTVYLQMNSLKPEDTAVYYCAADDSTLADGGDYWGQGTQVTVSS”, the “polyreactivity (PSR sort gate)” value is listed as “low polyreactivity”.

For “QVQLVESGGGLVQAGGSLRLSCAASGSIVIINAMGWYRQAPGKERELVASMTRNGGSTYYADSVKGRFTISRDNPKNTVEFQMNSLKPDDTAVYYCAATYYRFPSLIAYVRYDYWGQGTQVTVSS”, the “polyreactivity (PSR sort gate)” value is listed as “high polyreactivity”.

With “QVQLVESGGGLVQAGGSLRLSCAASGSIVPVYAMGWYRQAPGKEREFVAGINTIGGSTYYADSVKGRFTISRDNAKNTVYLQMNSLKPEDTAVYYCAATQYWNMYSWGQGTQVTVSS”, the “polyreactivity (PSR sort gate)” value is given as “low polyreactivity”.

In the case of “QVQLVESGGGLVQAGGSLRLSCAASGSIVSGYAMRWYRQAPGKQRELVAAISRGGSTNYADSVKGRFTISRDNAKNTVYLQMNSLKPEDTAVYYCANTPTKYHYAFGYWGQCTQVTVSS”, the “polyreactivity (PSR sort gate)” value is “low polyreactivity”.

Consider “QVQLVESGGGLVQAGGSLRLSCAASGSIVSVYAMGWSRQAPGKEREWVAAISGRGGRTYYADSVKGRFTISRDNAKNTVYLQMNSLKPVDTAVYYCAARYPRYRYVEYGYNYWGQGTQVTVSS”, for which the “polyreactivity (PSR sort gate)” value is “high polyreactivity”.

For the sequence “QVQLVESGGGLVQAGGSLRLSCAASGSIWRNAMGWYRQAPGKERELVAGITRRSGSTYYADSVKGRFTISRDNAKYTVYLQMNSLKPEDTAVYYCARVVVGGDDYWGQGTQVTVSS”, the “polyreactivity (PSR sort gate)” value is reported as “high polyreactivity”.

Turning to “QVQLVESGGGLVQAGGSLRLSCAASGSIYARNAMGWYRQAPGKERELVAAIRYSGGSTYYADSVKGRFTISRDNAKNTVYLQMNSLKPEDTAVYYCAARWGVFGYYYWGQVTQVTVSS”, the “polyreactivity (PSR sort gate)” value is listed as “high polyreactivity”.

As to “QVQLVESGGGLVQAGGSLRLSCAASGSIYGYNAMGWYRQAPGKEREFVAAISWSGGRTYYADSVKGRFTISRDTAKNTVYLQMNSLNPEDTAVYYCAAPSRPAPRFDYWGQGTQVTVSS”, the “polyreactivity (PSR sort gate)” value is reported as “low polyreactivity”.

With “QVQLVESGGGLVQAGGSLRLSCAASGSIYGYTMGWNRQAPWKERELVAAINRRADRTYYADSVKGRFTISRDNAKNTVYLQMNSLKPEDTAVYYCNKGGWYTLGYWGQGTQVTVSS”, the “polyreactivity (PSR sort gate)” value is “high polyreactivity”.

“QVQLVESGGGLVQAGGSLRLSCAASGSIYNKNAMGWNRQAPGKERELVAAINQSGGGTYYADSVKGRFTISRDNAKNTVYLQMNSLKPEDTAVYYCAAQVWAGIRYYHMYYWGQGTQVTVSS”: the “polyreactivity (PSR sort gate)” value is given as “low polyreactivity”.

Regarding “QVQLVESGGGLVQAGGSLRLSCAASGSIYRYAMGWYRQAPGKERELVAAINFNGGRTYYADSVKGRFTISRDNAKNTVYIQMNSLKPEDTAVYYCAAVRSSNQGGFDYWGQGTQVTVSS”, the “polyreactivity (PSR sort gate)” value is on record as “high polyreactivity”.

For “QVQLVESGGGLVQAGGSLRLSCAASGSIYTSNAMGWYRQAPGKERELVAVITWRSGRTYYADSVKGRFTISRDNAMNTVYLQMNSLKPEDTAVYYCDALRYPKQKFDSWGQGTQVTVSS”, the “polyreactivity (PSR sort gate)” value is reported as “high polyreactivity”.

In the case of “QVQLVESGGGLVQAGGSLRLSCAASGSIYVNTMGWYRQAPGKEREFVAAITRRGGSTYYADSVKGRFTISRDNAKNTVYLQMNSLKPEDTAVYYCNADNRYSAHDYWGQGTQVTVSS”, the “polyreactivity (PSR sort gate)” value is reported as “high polyreactivity”.

In the case of “QVQLVESGGGLVQAGGSLRLSCAASGSIYYFNAMGWYRQAPGKERELVASITSGGSTNYADSVKGRFTLSRDNAKNTVYLQMNSLNPEDTAVYYCNARFPYLSRWLVRGLASYDYWGQGTQVTVSS”, the “polyreactivity (PSR sort gate)” value was “low polyreactivity”.

With “QVQLVESGGGLVQAGGSLRLSCAASGSLFEWYAMGWSRQAPGKEREFVADITYNGGSTYYADSVKGRFTISRDNAKNTVYLHMNSLKPEDTAVYYCAADYFVQVPDYYYPSEYGYWGQGTQVTVSS”, the “polyreactivity (PSR sort gate)” value was “low polyreactivity”.

Regarding “QVQLVESGGGLVQAGGSLRLSCAASGSLFNYYAMAWSRTAPGKERELVAGITTSGGSTYYAESVKGRFRISRDNAKNTVYLQMNSLKPEDTAVYYCAAYDYISSTYFLDDYWGQGTQVTVSS”, the “polyreactivity (PSR sort gate)” value was “low polyreactivity”.

As to “QVQLVESGGGLVQAGGSLRLSCAASGSLFTGYAMGWYRQAPGKERELVAAISSSGSTTYYADSVKGRFTISRDNAKNTVYLQMNSLKPEDTAVYYCATRVNYGYYYWGQGSQVTVSS”, the “polyreactivity (PSR sort gate)” value is “high polyreactivity”.

As for “QVQLVESGGGLVQAGGSLRLSCAASGSLFYFYAMGWYRQAPGKERELVAAISSGGSTYYADSVKGRFTISRDNAKNTVYLQMNSLKPEDTEVYYCAADSLYYRYDYWGQGTQVTVSS”, the “polyreactivity (PSR sort gate)” value is on record as “low polyreactivity”.

Turning to “QVQLVESGGGLVQAGGSLRLSCAASGSLVGYYPMGWYRQAPGKERELVAAISRSGGSTYYADSVKGRFSISRDNAKNTVYLQMNSLKPEDTAVYYCATSRVRSAGRDYWGQGTQVTVSS”, the “polyreactivity (PSR sort gate)” value is on record as “high polyreactivity”.

As to “QVQLVESGGGLVQAGGSLRLSCAASGSNFAKYAMGWYRQAPGKERELVAAISWRGGSTYYADSVKGRFTISRDNAKNTVYLQMNSLKPEDTAVYYCNKVGTWQGPYDYWGQGTQVTVSS”, the “polyreactivity (PSR sort gate)” value is “high polyreactivity”.

Take “QVQLVESGGGLVQAGGSLRLSCAASGSNFDIYAMGWSRQAPGKERELVAAISWNGGDTTYADSVKGRFTISRDNAKNTVYLQLNSLKPEDTAVYYCAADLGYWVADYYWGQGTQVTVSS”: the “polyreactivity (PSR sort gate)” value is “high polyreactivity”.

On to “QVQLVESGGGLVQAGGSLRLSCAASGSNFDVNAMGWYRQAPGKERELVAAISDSGGSTYYADSVKGRFTISRDNAKNTVYLQMNSLKPEDTAVYYCNADWSWYNYYDFDYWGQGTQVTVSS”, for which the “polyreactivity (PSR sort gate)” value is “low polyreactivity”.

On to “QVQLVESGGGLVQAGGSLRLSCAASGSNFFFNTMGWYRQAPGKERELVAVITSGGSTYYADSVKGRFTISRDNAKNTVYLQMNSLKPEDTAVYYCAARYLPYRRIKYDYWGQGTQVTVSS”, for which the “polyreactivity (PSR sort gate)” value is listed as “low polyreactivity”.
